B1: Ferredoxin--NADP reductase (Anabaena sp. (strain PCC 7119)), P21890 (parent)
chain: MSNQGAFDGAANVESGSRVFVYEVVGMRQNEETDQTNYPIRKSGSVFIRVPYNRMNQEMQRITRLGGKIVTIQTVSALQQLNGRTTIATVTDASSEIAKSEGNGKATPVKTDSGAKAFAKPPAEEQLKKKDNKGNTMTQAKAKHADVPVNLYRPNAPFIGKVISNEPLVKEGGIGIVQHIKFDLTGGNLKYIEGQSIGIIPPGVDKNGKPEKLRLYSIASTRHGDDVDDKTISLCVRQLEYKHPESGETVYGVCSTYLTHIEPGSEVKITGPVGKEMLLPDDPEANVIMLATGTGIAPMRTYLWRMFKDAERAANPEYQFKGFSWLVFGVPTTPNILYKEELEEIQQKYPDNFRLTYAISREQKNPQGGRMYIQDRVAEHADELWQLIKNQKTHTYICGLRGMEEGIDAALSAAAAKEGVTWSDYQKDLKKAGRWHVETY
B2: Ferredoxin--NADP reductase (Anabaena sp. (strain PCC 7119)), P21890 (parent)
chain: B1 chain
partner: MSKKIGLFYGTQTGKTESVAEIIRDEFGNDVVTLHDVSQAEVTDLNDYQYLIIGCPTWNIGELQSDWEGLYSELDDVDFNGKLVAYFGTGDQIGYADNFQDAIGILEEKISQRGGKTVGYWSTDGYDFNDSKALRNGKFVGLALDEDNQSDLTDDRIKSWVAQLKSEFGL

Variants of: B1
Details: with fer1_nosso petF

Effect of a mutation on the interaction, decreasing interaction:
K206Q
K206S
K206E

Variants of: B2
Details: with flav_nosso isiB

Effect of a mutation on the interaction, decreasing interaction:
K206S
K206E
K206Q

Reference: IntAct's records for PubMed 9753447
